Laboratory results: the DeepSol protein solubility set

Assay: soluble on expression in E. coli; label from the status in PepcDB or PDB records
In the case of “MGSDKIHHHHHHMSTSVLYHAFNLKGITYRATRFTGDVIEYFADVKEEYIRCPKCGQRKFTFKGQKTRSFHLGPMGRKRCFLVLSLHRIKCNTCDTLWWPDLPFMVGKHRFARSFALIVLDLLRFGTIRWVADYLGVGWDMIKEIHKLKLQRLYRNIPLHKVRYIGIDEFSIRKGHEYMTTVMDLSEGRILYATEGKGKEGILPFLKKLARKGKKLRAVAMDMGISFFSAVREALPNIDVVFDRYHIMALMNQGIENLRRNHQKELDDTGKQTLKGNRFLLLRNYDSLKPDHKERLDALMQANQPLFVMHSMKEQLRLFWEIPEYAQAVTFLDTWCKDAMLSGIKELVKVAKTLSGYRTAILNYFKHHITNAALEGTNNKIKTLKRQAYGFRDMEYFKLRLYHLHTQRYSLTG”, the “soluble on expression in E. coli” value was “not soluble”.
With “SKLNERSVAHYALSDSPADHMGFLRTWGGPGTPPTPSGTGRRCWFVLKGNLLFSFESREGRAPLSLVVLEGCTVELAEAPVPEEFAFAICFDAPGVRPHLLAAEGPAAQEAWVKVLSRASFGYMRLVVRELESQLQDARQSLALQRRSSWKSVASRCKPQAPNHRAAGLENGHCLSKDSSPVGLVEEAGSRSAGWGLAEWELQGPASLLLGKGQSPVSPETSCFSTLHDWYGQEIVELRQCWQKRAQGSHSKCEEQDRP” the “soluble on expression in E. coli” value was “soluble”.
For “MSDFVPETEENEEESQKIDEIHEIPAQAIIIDQSFSRRFLNNKWYGKYGEDGDLLEHIDEDWEPVGLDEVEFLSQLWFEQEDQEKKAHRHYDWDEEKKEWVPKAKQEEVNEDFIAEYQANYGVQYDDIYKKMDEELQEKAAKAQKEDEEKKEKKRKKKVGLGAGEDAKEGWLDLGDKVHAVYVSNLPEDITDEEFQKFMSKCGVIQPDIRTNKPKCKLYREENGKLKGDGRCCYIKKESVELACNILDGANLNGREVKVEEARFEMKGDFDPARKRRKLTAAQKKRYMEQQNKIFEWTPDKPRNYRPKSDCTVIVKNLFTQEMMNKNAALMLDLKEEMTQSCQKYGIVKKVVVYANHPDGVVSVTFPTTEESDMAVKYLHGRVVDGRKLTAELWDGRTKFKVEETEEDEEKRRKEYEKYIEGGSSETKEESDDDDDDEAEDN”, the “soluble on expression in E. coli” value was “not soluble”.
In the case of “GPGSMSQQNAVEALLARLQMGDTIPAFQSMGVDRIVSLRKMSEEALSQAVPDPEQRQALMDAIESRGHLQSRRAGPPAGQPHPPRSADADFARGGNDEGRGGYAPRGDRGGRIARGGRGGGRGAGAPNGDDAARVCRHVFTPEGCKYGDKCRYSHDENDRRRAQEVPTGSGMAQRSLERPPPNFKFSIEVEIPTERIKYLLGSQGNNMKFINETCGTYNERFDHVDEKEETFTIRILGGSEEAINKAKEMLLLSAGVKREEEKKDRFQYAVNELDANTHAARLFAACNTKNKDTTRHLSDSIMRNIVSSFHFVRPQEVRHFYMYTSSSDKDKLEMVSKIVSQLKGVQAILFCDQKRVEEMCKGSQRIARHFNGVEPQFVYRQLSKEDRMMALERFKKGVENENGVRQRLLVTNEDYAKLARKTIIPYVNLVINFSVPRAEEYYVLQSQVAGRQGTIGASFLCVSNYEEALFRELEKNIQFERFEDEEHFRTTAVELSYDTTAQPLTPEDADPPADWREHLNDKKPRQNFGKRR”, the “soluble on expression in E. coli” value was “soluble”.
In the case of “MGSDKIHHHHHHMENLIKIDTVDQYNKMFGLETLHPLVSVVDLSKSETWPTNFRVNYGIYGLFLKDTKCGDIRYGRQYYDYQEGTVVGFAPGQVTGIELKDGTRPLAHGLLFHPDLIRGTALGRDIKRYSFFSYESNEALHLSEEEKGIFVDCLRKIQIELEHSIDKHSKRLIAMNIELLLDYCLRFYDRQFTTRAETNKDVLVRFERLLDEYLQSDLLRQEGLPTVRYFAEKICLSPNYFGDLIKKETGKTAQENIQDRIISLAKEWIVGTNKTVSQIAYDLGFQYSQHFSRIFKKTVGCTPNEYRKSQMS”, the “soluble on expression in E. coli” value was “not soluble”.
In the case of “MGSDKIHHHHHHMTAPFSTQLKRCTTCLLPETHETLVLDSEGVCNICRAQEVKAEINWEERLVHLDKLVAEYRGNYRYDCLIPFSGGKDSTWTLYYLMNRYPGIKPLVVRFNHGFLRPNLRANCDRVFRKLGVDVHDFSPSWKVVQRLMLQSFLEKGDFCWHCHTGIFAYPMQVAIKEQVPLIFWGEPSAEYTAYYNYDQAEEVDEERFNRYVNLGISAEDMLVRLDGYLDERDVEPFRYPPLKELRQLGYRSVCLGSYIPWDVKMQVGKIREELGWKGDLVENVPEDFNYEKIECWMQGVRDYIKYIKRGYTRPTHLAAIDLRNNRISKEEAKAMITQFEGRRPPSLDLFLDYVGLDEEQFYTIAMGHQVSPWQFDPDSIKSGPKTPDFEDWLRGDGLDLVDAEDQLGRWADSCSSCSSSSSCSGG”, the “soluble on expression in E. coli” value was “not soluble”.
For “MADDLGDEWWTQGDNSDVPEVEEETEHAEEKQPIKSTPKKRKVEKQIPDATKKKKATVKKECFITQERSEEKPDNESNKNKKRRKKKKTITDVLTSSKPVPGSPVDLVSLLKTYHSQTRSVIEQEELTLQDSCFLSCNDLTHSLSSYLKEVCPKWAKMQKQHTQTSSVVLLIVCGSALRTIDLIKQLVTFKGQAKVLKLFAKHIKVEEQIKSLSKGVTHIAVGTPGRICALLEKEGLTVQGLRYLVLDWNYRDQKQRRMVDVPEVKGDLLKMMDQGLIQSCREGTVKIGLF”, the “soluble on expression in E. coli” value was “not soluble”.
With “MSLKTELTLLEQTLTLHRFPKRNNETLQAWDAGDEYLIQHVEQLALPESSHIVIINDHFGTLSCWFSQKHKVSMMSDSYIAHQATQANLQQNQRPPVQLLTTLDPVPNDASVVLLQLPKSNRHLVWILSQLRKALSPNIPIIAVNKAKEIHTSTLNLFEKHLGPTTTSLAWKKHRLVFSSATVNPANEVNPECGWSIEPYAITLTNLPNVYSGESLDLGSRFILEHLPADPTLEDFIDLGCGNGVLSVRLGQLNPQAKITCVDESFMAIASAQKNLHDNLGKRDIHCIANNCLDGFPAHSSSMIVCNPPFHQQQTITDHIAWQMFCDSKHVLKKGGKLWVIGNRHLGYDVKLARLFGKSHVRVIANNSKFVILQAIKSEGHHHHHH” the “soluble on expression in E. coli” value was “soluble”.
In the case of “MVDLSRRSMLTGSWRNASNGILPPWARETTYFLAHCLRCDACIQACEADILQRGAGGYPSVDFKRGECSFCYACAQACTESLFLPRHTRAWDLVFTLTENCLARQSVECHRCQDSCEPMAITFRPTLSGIYQPQLDSQACNGCGACVAICPVSAIKAENHHAH”, the “soluble on expression in E. coli” value was “not soluble”.
With “TEELEKAYDSLKESEEHLRLTLEGSKAGMWMWDLRANWKITPQMNALLGRSESSPIKYEEFISMIHPEDQERVAQAWNKAIECKDFYDQEYRIFLPDGSIHWLSSKGSVIELHSGIRQLMGITTDIT” the “soluble on expression in E. coli” value was “not soluble”.
For “MIPLVSIIVPMYNVEPFIEECIDSLLRQTLSDIEIILVNDGTPDRSGEIAEDYAKRDARIRVIHQANGGLSSARNTGIKAARGTYIGFVDGDDYVSSAMFQRLTEEAEQNQLDIVGCGFYKQSSDRRTYVPPQLEANRVLTKPEMTEQLKHAHETRFIWYVWRYLYRRELFERANLLFDEDIRFAEDSPFNLSAFREAERVKMLDEGLYIYRENPNSLTEIPYKPAMDEHLQKQYQAKIAFYNHYGLAGACKEDLNVYICRHQLPMLLANACASPNSPKDIKKKIRQILSYDMVRQAVRHTPFQHEKLLRGERLVLALCKWRLTFLIKLFFEQRGTMKGSAKQALEHHHHHH”, the “soluble on expression in E. coli” value was “not soluble”.
With “MKKLVHLSDFHYDGLRLSEEMLAEAIAVSNQVQPDLVLLTGDYVTTTPQPIHQLAKRLQKLQSHAGIYAILGNHDLYQKNSKTEITQALTKAGIQVLWNEIAYPLGEELPIVGIVDYYYREFNPQLLFNQLEPTTPRIVLCHNPDTAAMLQGWRVDLQLSGHTHGGLEHHHHHH” the “soluble on expression in E. coli” value was “not soluble”.
For “MENGHLAKVDLTKKIESKSKYNKKLEKYQRRLLALQQILKEEKIAVMLVMEGWDAAGKGGAIKRVTEHLDPRGFQVDPIGAPAPHEKRYHYLQRFWRKIPQYGQITIFDRSWYGRVLVERVEGFATKEEWMRAYDEINDFEKLLTDDHYIIGKFFYHISKEEQLKRFKDREKNPLKRWKITDEDWRNREKWDEYVEAMEDMFEKTSKPNAKWHIIESNDKLYARVKTLKIIISFIEDYFLEHGIELPSYYYEMKEDIEVLQDVGVKE”, the “soluble on expression in E. coli” value was “not soluble”.
With “MVQLFSAFDRETIERNLQEEKFDLVIVGGGITGAGIALDATSRGMSVALVEMGDFASGTSSRSTKLVHGGLRYLQQFEIKEVADLGKERAIVYENGPHVTTPEWMMLPFHKGGNMGKTTASFGIRLYDYLAGVKKNERRKILSAKETLAKNPFVKKDGLKGSGYYVEYRTDDARLTIEVMKKAVELGANAINYTKAEHFLYDDKKQVVGVTVTDRLTGKAYDIKGHRVINAAGPWVDKVRKLDYATNNKHLRLTKGIHLVIDKQKFPMEQAVYFDTPDGRMVFAIPRDKKVYVGTTDTVYDEAVINPKALESDHNYVIKAINYMFPDVHISEKDIESSWAGVRPLIYEEGKDPSEISRKDEVWFSESGLITMAGGKLTGYRKMAEKLLDGVSKTLSKETGKKYKPVQTKHLPISGGDIGGSEQLEAFLSKKAKEGNNRFGWTLEEGREIAKRFGSNIDQLFTYAQEHKDQNETTLPNSLYAELRYSIQHEAVTTPIDFLLRRTGYLLFDMPYLLEWKDAVVDEMAKQFHWSDDVKQTYIEELNIQINDAREPADWHDRLEHHHHHH” the “soluble on expression in E. coli” value was “soluble”.
In the case of “GNPLRKFKLVFLGEQSVGKTSLITRFMYDSFDNTYQATIGIDFLSKTMYLEDRTVRLQLWDTAGLERFRSLIPSYIRDSTVAVVVYDITNVNSFQQTTKWIDDVRTERGSDVIIMLVGNKTDLADKRQVSIEEGERKAKELNVMFIETSAKAGYNVKQLFRRVAAALPGMESTQDRSREDMIDIKLEK”, the “soluble on expression in E. coli” value was “soluble”.
With “MKVLDSRDFAKVKAIAIERASYRNIGALAVYIGSMTGMRISEVLALTWPDIDTKLCVIHVTRSWDHLYGTGFKPTKTDSSVRDIEISPSVIELLNKIHQEQAASYLRTGYRDEDQMIMRDPRHNVITDSACNKALHVIQNKAGIPEDKQITFHGLRHSHVSYLISKGVDIYYISKRLGHSDVTITMKVYGHLLEHHHHHH” the “soluble on expression in E. coli” value was “soluble”.
For “MAEPWGNELASAAARGDLEQLTSLLQNNVNVNAQNGFGRTALQVMKLGNPEIARRLLLRGANPDLKDRTGNAVIHDAARAGFLDTLQTLLEFQADVNIEDNEGNLPLHLAAKEGHLRVVEFLVKHTASNVGHRNHKGDTACDLARLYGRNEVVSLMQANGAGGATNLQ”, the “soluble on expression in E. coli” value was “soluble”.
With “MIKGMKTRGERLKARRLELKLTLKQVAEAVGISLPGVQNLERGDVMPSLEIGLSLAKCLRKPVQWILYGTESDPDRVPVIGTTETGPDRDWQPGEPANTERFLPFVSQRNTVYALTVGNQIQRNYQPGDVILVDSSLTLVPGEDVLVCDNNGEITIQRLARYDEQHYYLDSANSQRVIHDKSDLQFVHQVVGTIKSFMVEGR” the “soluble on expression in E. coli” value was “not soluble”.
With “MANLEKKRVVVTGLGAITPIGNTLQDYWQGLMEGRNGIGPITRFDASDQACRFGGEVKDFDATQFLDRKEAKRMDRFCHFAVCASQQAINDAKLVINELNADEIGVLIGTGIGGLKVLEDQQTILLDKGPSRCSPFMIPMMIANMASGLTAINLGAKGPNNCTVTACAAGSNAIGDAFRLVQNGYAKAMICGGTEAAITPLSYAGFASARALSFRNDDPLHASRPFDKDRDGFVMGEGSGILILEELESALARGAKIYGEMVGYAMTCDAYHITAPVPDGRGATRAIAWALKDSGLKPEMVSYINAHGTSTPANDVTETRAIKQALGNHAYNIAVSSTKSMTGHLLGGSGGIEAVATVMAIAEDKVPPTINLENPDPECDLDYVPGQSRALIVDVALSNSFGFGGHNVTLAFKKYQ” the “soluble on expression in E. coli” value was “soluble”.
In the case of “TNRVADLTIYIIRQGVLDRRYLGEIERLYTENKFTNMCLVLNDVSYSGSRGTYGYGYGYGYGNKEYGKQGKKLRRRSAKKTKKFKIGPMKKS”, the “soluble on expression in E. coli” value was “not soluble”.
